Reference: publication PMC8067440 (Journal of Personalized Medicine, 2021)
Each block holds one molecule with its values, some of them ahead of it.

Columns and labels:
AGT (DMa, major allele) [1] = target: T1, AGT (DMa, major allele) (Homo sapiens, UniProt P21549, F238S/F240S/I340M/P11L/R118A); experiment: not described in detail here for MMi; format: binding; conditions: read-out: KD(PLP)
T1 construct: gene AGXT; full length, expressed in E. coli BL21(DE3), purified on HisPrep FF (His-tagged, removal not mentioned)
T1 sequence (P21549 1-392 P11L/R118A/F238S/F240S/I340M): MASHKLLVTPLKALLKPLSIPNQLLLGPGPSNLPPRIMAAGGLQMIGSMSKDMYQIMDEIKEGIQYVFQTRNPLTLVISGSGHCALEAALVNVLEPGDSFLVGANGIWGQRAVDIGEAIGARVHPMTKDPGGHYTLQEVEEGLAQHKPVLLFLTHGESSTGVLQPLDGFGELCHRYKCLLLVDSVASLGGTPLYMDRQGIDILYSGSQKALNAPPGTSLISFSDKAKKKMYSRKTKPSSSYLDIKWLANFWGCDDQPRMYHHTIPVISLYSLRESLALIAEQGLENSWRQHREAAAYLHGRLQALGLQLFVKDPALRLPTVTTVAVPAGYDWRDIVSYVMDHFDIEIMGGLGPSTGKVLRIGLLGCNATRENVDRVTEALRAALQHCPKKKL
From the text: not described in detail here for MMi on AGT (DMa, major allele; rows DMi, MMa, MMi)

[2] = target: T2, DMa-FlAsH (row MMa-FlAsH) (Homo sapiens, UniProt P21549, INS254CCPGCC); experiment: intrinsic fluorescence quenching of apoenzyme, tight-binding quadratic fit; conditions: 0.1 μM apoenzyme, 24 h incubation, PLP 0.01–10 μM
T2 construct: gene AGXT; full length with CCPGCC FlAsH motif inserted in a surface loop, expressed in E. coli BL21(DE3), purified on HisPrep FF (His-tagged)
T2 sequence (P21549 with tags, fused parts or gaps INS254CCPGCC): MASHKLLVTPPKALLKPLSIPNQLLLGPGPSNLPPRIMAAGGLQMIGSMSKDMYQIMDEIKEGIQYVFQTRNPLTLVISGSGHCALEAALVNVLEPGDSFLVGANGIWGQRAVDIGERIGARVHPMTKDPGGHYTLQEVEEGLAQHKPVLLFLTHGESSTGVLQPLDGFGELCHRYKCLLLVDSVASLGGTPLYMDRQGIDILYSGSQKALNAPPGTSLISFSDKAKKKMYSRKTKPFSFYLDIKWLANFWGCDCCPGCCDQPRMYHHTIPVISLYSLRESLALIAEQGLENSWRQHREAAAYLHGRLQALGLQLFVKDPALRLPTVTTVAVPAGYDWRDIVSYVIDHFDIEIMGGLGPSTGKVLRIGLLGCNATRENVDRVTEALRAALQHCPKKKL
Description: intrinsic fluorescence quenching of apoenzyme, tight-binding quadratic fit on DMa-FlAsH (row MMa-FlAsH) | The KD(PLP) of DMa-FlAsH was calculated by measuring the intrinsic fluorescence quenching

AGT (DMa, major allele) [3] = target: T3, AGT (DMa, major allele) (Homo sapiens, UniProt P21549, F238S/F240S/R118A); experiment: CD signal at […] nm, tight-binding quadratic fit; conditions: read-out: KD(PLP)
T3 construct: gene AGXT; full length, expressed in E. coli BL21(DE3), purified on HisPrep FF (His-tagged, removal not mentioned)
T3 sequence (P21549 1-392 R118A/F238S/F240S): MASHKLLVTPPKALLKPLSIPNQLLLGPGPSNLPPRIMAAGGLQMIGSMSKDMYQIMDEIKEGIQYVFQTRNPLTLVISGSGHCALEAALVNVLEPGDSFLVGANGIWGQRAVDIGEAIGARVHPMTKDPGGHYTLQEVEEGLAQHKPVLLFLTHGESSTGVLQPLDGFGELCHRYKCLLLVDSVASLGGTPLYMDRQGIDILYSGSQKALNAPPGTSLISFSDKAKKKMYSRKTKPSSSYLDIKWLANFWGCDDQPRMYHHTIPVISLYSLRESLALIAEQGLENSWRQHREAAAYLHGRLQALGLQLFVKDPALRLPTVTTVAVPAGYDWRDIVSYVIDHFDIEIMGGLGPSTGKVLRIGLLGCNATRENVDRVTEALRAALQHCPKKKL

AGT (DMa, major allele) [4] = target: T4, AGT (DMa, major allele) (Homo sapiens, UniProt P21549, I340M/P11L); experiment: not described here for DMi; format: binding; conditions: read-out: KD(PLP)
T4 construct: gene AGXT; full length, expressed in E. coli BL21(DE3), purified on HisPrep FF (His-tagged, removal not mentioned)
T4 sequence (P21549 1-392 P11L/I340M): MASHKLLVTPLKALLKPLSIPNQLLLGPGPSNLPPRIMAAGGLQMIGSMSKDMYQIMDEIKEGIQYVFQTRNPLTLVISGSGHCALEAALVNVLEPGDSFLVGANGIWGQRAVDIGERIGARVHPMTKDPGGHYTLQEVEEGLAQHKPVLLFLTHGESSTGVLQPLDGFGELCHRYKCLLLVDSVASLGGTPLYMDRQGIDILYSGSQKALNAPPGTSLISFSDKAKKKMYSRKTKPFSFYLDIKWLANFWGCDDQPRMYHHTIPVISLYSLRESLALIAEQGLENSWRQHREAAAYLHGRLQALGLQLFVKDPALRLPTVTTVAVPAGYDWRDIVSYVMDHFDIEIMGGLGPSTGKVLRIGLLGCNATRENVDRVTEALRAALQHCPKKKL
From the text: not described here for DMi on AGT (DMa, major allele; rows DMi, MMa, MMi)

[5] = target: T5, DMa-FlAsH (row MMa-FlAsH) (Homo sapiens, UniProt P21549, R118A/F238S/F240S/INS254CCPGCC); experiment: CD signal at […] nm, tight-binding quadratic fit; conditions: 10 μM apoenzyme, 24 h incubation, PLP 1–300 μM
T5 construct: gene AGXT; full length with CCPGCC FlAsH motif inserted in a surface loop, expressed in E. coli BL21(DE3), purified on HisPrep FF (His-tagged)
T5 sequence (P21549 with tags, fused parts or gaps R118A/F238S/F240S/INS254CCPGCC): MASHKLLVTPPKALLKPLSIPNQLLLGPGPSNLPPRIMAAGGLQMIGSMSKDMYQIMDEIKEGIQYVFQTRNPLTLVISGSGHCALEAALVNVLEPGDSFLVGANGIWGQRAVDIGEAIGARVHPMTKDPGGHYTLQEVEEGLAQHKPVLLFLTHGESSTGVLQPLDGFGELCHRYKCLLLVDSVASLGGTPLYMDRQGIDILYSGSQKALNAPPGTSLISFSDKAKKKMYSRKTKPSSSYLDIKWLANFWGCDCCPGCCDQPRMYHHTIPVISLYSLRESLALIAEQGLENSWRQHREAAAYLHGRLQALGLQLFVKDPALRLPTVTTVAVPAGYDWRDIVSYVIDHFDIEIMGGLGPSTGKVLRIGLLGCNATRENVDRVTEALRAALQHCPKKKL

AGT (DMa, major allele) [6] = target: T6, AGT (DMa, major allele) (Homo sapiens, UniProt P21549); experiment: not described here for DMa; format: binding; conditions: read-out: KD(PLP)
T6 construct: gene AGXT; full length, expressed in E. coli BL21(DE3), purified on HisPrep FF (His-tagged, removal not mentioned)
T6 sequence (P21549 1-392): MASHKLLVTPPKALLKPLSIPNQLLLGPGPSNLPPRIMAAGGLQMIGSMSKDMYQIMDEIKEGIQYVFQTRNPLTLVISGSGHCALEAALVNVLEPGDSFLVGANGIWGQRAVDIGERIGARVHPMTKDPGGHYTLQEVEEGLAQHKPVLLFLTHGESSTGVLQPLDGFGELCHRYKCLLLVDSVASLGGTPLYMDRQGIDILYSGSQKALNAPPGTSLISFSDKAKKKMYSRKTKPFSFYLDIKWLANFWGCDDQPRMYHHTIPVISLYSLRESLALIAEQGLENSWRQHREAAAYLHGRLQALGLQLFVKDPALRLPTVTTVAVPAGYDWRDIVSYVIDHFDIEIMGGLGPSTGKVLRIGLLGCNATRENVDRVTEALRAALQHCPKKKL
From the text: not described here for DMa on AGT (DMa, major allele; rows DMi, MMa, MMi)

[7] = target: artificial monomeric form of alanine:glyoxylate aminotransferase on the major allele (MMa), R118A/F238S/F240S, recombinant purified (human) (UniProt P21549); experiment: SEC; apo-form; Superdex 200 10/300 GL, room temperature, KP 0.1 M, pH 7.4; samples at different concentrations incubated overnight at 25 °C; percent dimer from peak areas fitted; dimer to monomers
[8] = target: artificial monomeric form of alanine:glyoxylate aminotransferase on the major allele (MMa), R118A/F238S/F240S, recombinant purified (human) (UniProt P21549); experiment: SEC; holo-form, in the presence of saturating PLP; Superdex 200 10/300 GL, room temperature, KP 0.1 M, pH 7.4; samples at different concentrations incubated overnight at 25 °C; percent dimer from peak areas fitted; dimer to monomers
[9] = target: the molecule itself; experiment: SEC; apo-form; Superdex 200 10/300 GL, room temperature, KP 0.1 M, pH 7.4; samples at different concentrations incubated overnight at 25 °C; percent dimer from peak areas fitted; dimer to monomers
[10] = target: the molecule itself; experiment: SEC; holo-form, in the presence of saturating PLP; Superdex 200 10/300 GL, room temperature, KP 0.1 M, pH 7.4; samples at different concentrations incubated overnight at 25 °C; percent dimer from peak areas fitted; dimer to monomers

Kd (AGT (DMa, major allele) [1]): 4.4 ± 0.5 µM | Kd [2]: 0.25 ± 0.03 µM | Kd (AGT (DMa, major allele) [3]): 3.2 ± 0.6 µM | Kd (AGT (DMa, major allele) [4]): 0.26 ± 0.02 µM | Kd [5]: 7.2 ± 1.1 µM | Kd (AGT (DMa, major allele) [6]): 0.27 ± 0.03 µM
Molecule: Cc1ncc(COP(=O)(O)O)c(C=O)c1O [PLP]

Kd [7]: 4.1 µM | Kd [8]: 1.5 µM
Molecule: artificial monomeric form of alanine:glyoxylate aminotransferase on the major allele (MMa), R118A/F238S/F240S, recombinant purified (from UniProt P21549 1-392) (enzyme)

B1: alanine:glyoxylate aminotransferase, native dimeric form encoded by the major allele (DMa), recombinant purified (enzyme, human, UniProt P21549 1-392, looked up)
chain: MASHKLLVTPPKALLKPLSIPNQLLLGPGPSNLPPRIMAAGGLQMIGSMSKDMYQIMDEIKEGIQYVFQTRNPLTLVISGSGHCALEAALVNVLEPGDSFLVGANGIWGQRAVDIGERIGARVHPMTKDPGGHYTLQEVEEGLAQHKPVLLFLTHGESSTGVLQPLDGFGELCHRYKCLLLVDSVASLGGTPLYMDRQGIDILYSGSQKALNAPPGTSLISFSDKAKKKMYSRKTKPFSFYLDIKWLANFWGCDDQPRMYHHTIPVISLYSLRESLALIAEQGLENSWRQHREAAAYLHGRLQALGLQLFVKDPALRLPTVTTVAVPAGYDWRDIVSYVIDHFDIEIMGGLGPSTGKVLRIGLLGCNATRENVDRVTEALRAALQHCPKKKL
notes: human alanine:glyoxylate aminotransferase (AGT), major allele (Pro11, Ile340); bacterial construct pAGT-Ma; Homodimer in its native state; Used as apo-form and as holo-form (with PLP); also called AGT; AGT-Ma; source: E. coli BL21(DE3), purified (HisPrep FF)
Kd [9]: < 0.3 µM | Kd [10]: < 0.3 µM

B2: artificial monomeric form of alanine:glyoxylate aminotransferase on the minor allele (MMi), R118A/F238S/F240S, recombinant purified (enzyme, human, UniProt P21549 1-392, looked up)
chain: MASHKLLVTPLKALLKPLSIPNQLLLGPGPSNLPPRIMAAGGLQMIGSMSKDMYQIMDEIKEGIQYVFQTRNPLTLVISGSGHCALEAALVNVLEPGDSFLVGANGIWGQRAVDIGEAIGARVHPMTKDPGGHYTLQEVEEGLAQHKPVLLFLTHGESSTGVLQPLDGFGELCHRYKCLLLVDSVASLGGTPLYMDRQGIDILYSGSQKALNAPPGTSLISFSDKAKKKMYSRKTKPSSSYLDIKWLANFWGCDDQPRMYHHTIPVISLYSLRESLALIAEQGLENSWRQHREAAAYLHGRLQALGLQLFVKDPALRLPTVTTVAVPAGYDWRDIVSYVMDHFDIEIMGGLGPSTGKVLRIGLLGCNATRENVDRVTEALRAALQHCPKKKL
notes: human alanine:glyoxylate aminotransferase (AGT), minor allele (Pro11Leu, Ile340Met), with the interfacial mutations R118A/F238S/F240S on pAGT-Mi; Used as apo-form and as holo-form (with PLP); source: E. coli BL21(DE3), purified (HisPrep FF)
Kd [9]: 80 ± 1 µM | Kd [10]: 9.4 ± 0.5 µM

B3: alanine:glyoxylate aminotransferase, native dimeric form encoded by the minor allele (DMi), recombinant purified (enzyme, human, UniProt P21549 1-392, looked up)
chain: MASHKLLVTPLKALLKPLSIPNQLLLGPGPSNLPPRIMAAGGLQMIGSMSKDMYQIMDEIKEGIQYVFQTRNPLTLVISGSGHCALEAALVNVLEPGDSFLVGANGIWGQRAVDIGERIGARVHPMTKDPGGHYTLQEVEEGLAQHKPVLLFLTHGESSTGVLQPLDGFGELCHRYKCLLLVDSVASLGGTPLYMDRQGIDILYSGSQKALNAPPGTSLISFSDKAKKKMYSRKTKPFSFYLDIKWLANFWGCDDQPRMYHHTIPVISLYSLRESLALIAEQGLENSWRQHREAAAYLHGRLQALGLQLFVKDPALRLPTVTTVAVPAGYDWRDIVSYVMDHFDIEIMGGLGPSTGKVLRIGLLGCNATRENVDRVTEALRAALQHCPKKKL
notes: human alanine:glyoxylate aminotransferase (AGT), minor allele (Pro11Leu, Ile340Met); bacterial construct pAGT-Mi; Homodimer in its native state; Used as apo-form and as holo-form (with PLP); also called AGT-Mi; source: E. coli BL21(DE3), purified (HisPrep FF)
Kd [9]: < 0.3 µM | Kd [10]: < 0.3 µM
